{"source": "the supplement of paper PMC5998384", "key": {"HeLa Kyoto [1]": {"system": "HeLa Kyoto", "experiment": "solubility change mitosis vs G1/S (difference of NP-40 vs SDS log2 ratios) (log2 ratio difference); higher = more soluble in mitosis"}, "HeLa Kyoto [2]": {"system": "HeLa Kyoto", "experiment": "solubility in G1/S (NP-40 vs SDS abundance) (log2 ratio); higher = more soluble", "conditions": "cell cycle stage: G1/S"}, "HeLa Kyoto [3]": {"system": "HeLa Kyoto", "experiment": "thermal stability score vs G1/S (z-score of summed log2 fold changes over temperatures); higher = more thermally stable than in G1/S"}, "[4]": {"conditions": "cell cycle stage: early G1 (4.5 h after nocodazole release)"}}, "data": [{"sequence": "MDLDVVNMFVIAGGTLAIPILAFVASFLLWPSALIRIYYWYWRRTLGMQVRYVHHEDYQFCYSFRGRPGHKPSILMLHGFSAHKDMWLSVVKFLPKNLHLVCVDMPGHEGTTRSSLDDLSIDGQVKRIHQFVECLKLNKKPFHLVGTSMGGQVAGVYAAYYPSDVSSLCLVCPAGLQYSTDNQFVQRLKELQGSAAVEKIPLIPSTPEEMSEMLQLCSYVRFKVPQQILQGLVDVRIPHNNFYRKLFLEIVSEKSRYSLHQNMDKIKVPTQIIWGKQDQVLDVSGADMLAKSIANCQVELLENCGHSVVMERPRKTAKLIIDFLASVHNTDNNKKLD [ABHD6]", "values": [{"measurement": "solubility change mitosis (log2)", "setting": "HeLa Kyoto [1]", "result": -0.0832}, {"measurement": "solubility in G1/S (log2)", "setting": "HeLa Kyoto [2]", "result": -0.209}, {"measurement": "thermal stability score", "setting": "HeLa Kyoto [3]; [4]", "result": 0.51}, {"measurement": "thermal stability score", "setting": "HeLa Kyoto [3]; cell cycle stage: mitosis", "result": -0.118}]}, {"sequence": "MDLPVDEWKSYLLQKWASLPTSVQVTISTAETLRDIFLHSSSLLQPEDELFLKRLSKGYLVGKDSDAPLFYREEGNKKFQEKDYTGAAVLYSKGVSHSRPNTEDMSLCHANRSAALFHLGQYETCLKDINRAQTHGYPERLQPKIMLRKAECLVALGRLQEASQTISDLERNFTATPALADVLPQTLQRNLHRLKMKMQEKDSLTESFPAALAKTLEDAALREENEQLSNASSSIGLCVDPLKGRCLVATKDILPGELLVQEDAFVSVLNPGELPPPHHGLDSKWDTRVTNGDLYCHRCLKHTLATVPCDGCSYAKYCSQECLQQAWELYHRTECPLGGLLLTLGVFCHIALRLTLLVGFEDVRKIITKLCDKISNKDICLPESNNQVKTLNYGLGESEKNGNIVETPIPGCDINGKYENNYNAVFNLLPHTENHSPEHKFLCALCVSALCRQLEAASLQAIPTERIVNSSQLKAAVTPELCPDVTIWGVAMLRHMLQLQCNAQAMTTIQHTGPKGSIVTDSRQVRLATGIFPVISLLNHSCSPNTSVSFISTVATIRASQRIRKGQEILHCYGPHKSRMGVAERQQKLRSQYFFDCACPACQTEAHRMAAGPRWEAFCCNSCGAPMQGDDVLRCGSRSCAESAVSRDHLVSRLQDLQQQVRVAQKLLRDGELERAVQRLSGCQRDAESFLWAEHAVVGEIADGLARACAALGDWQKSATHLQRSLYVVEVRHGPSSVEMGHELFKLAQIFFNGFAVPEALSTIQKAEEVLSLHCGPWDDEIQELQKMKSCLLDLPPTPVGPAL [SMYD4]", "values": [{"measurement": "solubility change mitosis (log2)", "setting": "HeLa Kyoto [1]", "result": 0.000145}, {"measurement": "solubility in G1/S (log2)", "setting": "HeLa Kyoto [2]", "result": -0.119}, {"measurement": "thermal stability score", "setting": "HeLa Kyoto [3]; [4]", "result": 0.716}, {"measurement": "thermal stability score", "setting": "HeLa Kyoto [3]; cell cycle stage: mitosis", "result": 0.631}]}, {"sequence": "MDSSAVITQISKEEARGPLRGKGDQKSAASQKPRSRGILHSLFCCVCRDDGEALPAHSGAPLLVEENGAIPKQTPVQYLLPEAKAQDSDKICVVIDLDETLVHSSFKPVNNADFIIPVEIDGVVHQVYVLKRPHVDEFLQRMGELFECVLFTASLAKYADPVADLLDKWGAFRARLFRESCVFHRGNYVKDLSRLGRDLRRVLILDNSPASYVFHPDNAVPVASWFDNMSDTELHDLLPFFEQLSRVDDVYSVLRQPRPGS [CTDSP1]", "values": [{"measurement": "solubility change mitosis (log2)", "setting": "HeLa Kyoto [1]", "result": -0.0207}, {"measurement": "solubility in G1/S (log2)", "setting": "HeLa Kyoto [2]", "result": -0.148}, {"measurement": "thermal stability score", "setting": "HeLa Kyoto [3]; [4]", "result": 0.748}, {"measurement": "thermal stability score", "setting": "HeLa Kyoto [3]; cell cycle stage: mitosis", "result": 0.982}]}, {"sequence": "MDTTAAAALPAFVALLLLSPWPLLGSAQGQFSAGGCTFDDGPGACDYHQDLYDDFEWVHVSAQEPHYLPPEMPQGSYMIVDSSDHDPGEKARLQLPTMKENDTHCIDFSYLLYSQKGLNPGTLNILVRVNKGPLANPIWNVTGFTGRDWLRAELAVSTFWPNEYQVIFEAEVSGGRSGYIAIDDIQVLSYPCDKSPHFLRLGDVEVNAGQNATFQCIATGRDAVHNKLWLQRRNGEDIPVAQTKNINHRRFAASFRLQEVTKTDQDLYRCVTQSERGSGVSNFAQLIVREPPRPIAPPQLLGVGPTYLLIQLNANSIIGDGPIILKEVEYRMTSGSWTETHAVNAPTYKLWHLDPDTEYEIRVLLTRPGEGGTGLPGPPLITRTKCAEPMRTPKTLKIAEIQARRIAVDWESLGYNITRCHTFNVTICYHYFRGHNESKADCLDMDPKAPQHVVNHLPPYTNVSLKMILTNPEGRKESEETIIQTDEDVPGPVPVKSLQGTSFENKIFLNWKEPLDPNGIITQYEISYSSIRSFDPAVPVAGPPQTVSNLWNSTHHVFMHLHPGTTYQFFIRASTVKGFGPATAINVTTNISAPTLPDYEGVDASLNETATTITVLLRPAQAKGAPISAYQIVVEELHPHRTKREAGAMECYQVPVTYQNAMSGGAPYYFAAELPPGNLPEPAPFTVGDNRTYQGFWNPPLAPRKGYNIYFQAMSSVEKETKTQCVRIATKAATEEPEVIPDPAKQTDRVVKIAGISAGILVFILLLLVVILIVKKSKLAKKRKDAMGNTRQEMTHMVNAMDRSYADQSTLHAEDPLSITFMDQHNFSPRYENHSATAESSRLLDVPRYLCEGTESPYQTGQLHPAIRVADLLQHINLMKTSDSYGFKEEYESFFEGQSASWDVAKKDQNRAKNRYGNIIAYDHSRVILQPVEDDPSSDYINANYIDGYQRPSHYIATQGPVHETVYDFWRMIWQEQSACIVMVTNLVEVGRVKCYKYWPDDTEVYGDFKVTCVEMEPLAEYVVRTFTLERRGYNEIREVKQFHFTGWPDHGVPYHATGLLSFIRRVKLSNPPSAGPIVVHCSAGAGRTGCYIVIDIMLDMAEREGVVDIYNCVKALRSRRINMVQTEEQYIFIHDAILEACLCGETAIPVCEFKAAYFDMIRIDSQTNSSHLKDEFQTLNSVTPRLQAEDCSIACLPRNHDKNRFMDMLPPDRCLPFLITIDGESSNYINAALMDSYRQPAAFIVTQYPLPNTVKDFWRLVYDYGCTSIVMLNEVDLSQGCPQYWPEEGMLRYGPIQVECMSCSMDCDVINRIFRICNLTRPQEGYLMVQQFQYLGWASHREVPGSKRSFLKLILQVEKWQEECEEGEGRTIIHCLNGGGRSGMFCAIGIVVEMVKRQNVVDVFHAVKTLRNSKPNMVEAPEQYRFCYDVALEYLESS [PTPRK]", "values": [{"measurement": "solubility change mitosis (log2)", "setting": "HeLa Kyoto [1]", "result": -0.0752}, {"measurement": "solubility in G1/S (log2)", "setting": "HeLa Kyoto [2]", "result": 0.0167}, {"measurement": "thermal stability score", "setting": "HeLa Kyoto [3]; [4]", "result": 1.97}, {"measurement": "thermal stability score", "setting": "HeLa Kyoto [3]; cell cycle stage: mitosis", "result": 1.47}]}, {"sequence": "MDWQPDEQGLQQVLQLLKDSQSPNTATQRIVQDKLKQLNQFPDFNNYLIFVLTRLKSEDEPTRSLSGLILKNNVKAHYQSFPPPVADFIKQECLNNIGDASSLIRATIGILITTIASKGELQMWPELLPQLCNLLNSEDYNTCEGAFGALQKICEDSSELLDSDALNRPLNIMIPKFLQFFKHCSPKIRSHAIACVNQFIMDRAQALMDNIDTFIEHLFALAVDDDPEVRKNVCRALVMLLEVRIDRLIPHMHSIIQYMLQRTQDHDENVALEACEFWLTLAEQPICKEVLASHLVQLIPILVNGMKYSEIDIILLKGDVEEDEAVPDSEQDIKPRFHKSRTVTLPHEAERPDGSEDAEDDDDDDALSDWNLRKCSAAALDVLANVFREELLPHLLPLLKGLLFHPEWVVKESGILVLGAIAEGCMQGMVPYLPELIPHLIQCLSDKKALVRSIACWTLSRYAHWVVSQPPDMHLKPLMTELLKRILDGNKRVQEAACSAFATLEEEACTELVPYLSYILDTLVFAFGKYQHKNLLILYDAIGTLADSVGHHLNQPEYIQKLMPPLIQKWNELKDEDKDLFPLLECLSSVATALQSGFLPYCEPVYQRCVTLVQKTLAQAMMYTQHPEQYEAPDKDFMIVALDLLSGLAEGLGGHVEQLVARSNIMTLLFQCMQDSMPEVRQSSFALLGDLTKACFIHVKPCIAEFMPILGTNLNPEFISVCNNATWAIGEICMQMGAEMQPYVQMVLNNLVEIINRPNTPKTLLENTGRLTSPSAIPAITIGRLGYVCPQEVAPMLQQFIRPWCTSLRNIRDNEEKDSAFRGICMMIGVNPGGVVQDFIFFCDAVASWVSPKDDLRDMFYKILHGFKDQVGEDNWQQFSEQFPPLLKERLAAFYGV [TNPO2]", "values": [{"measurement": "solubility change mitosis (log2)", "setting": "HeLa Kyoto [1]", "result": -0.263}, {"measurement": "solubility in G1/S (log2)", "setting": "HeLa Kyoto [2]", "result": 0.0053}, {"measurement": "thermal stability score", "setting": "HeLa Kyoto [3]; [4]", "result": -0.161}, {"measurement": "thermal stability score", "setting": "HeLa Kyoto [3]; cell cycle stage: mitosis", "result": 0.756}]}]}
